Source: paper PMC12416549 (2024)
Numbering of substitutions follows the chain as printed. Numbers in names are those of the source.

T1: TNFR1 (Homo sapiens, UniProt P19438)
T1 chain: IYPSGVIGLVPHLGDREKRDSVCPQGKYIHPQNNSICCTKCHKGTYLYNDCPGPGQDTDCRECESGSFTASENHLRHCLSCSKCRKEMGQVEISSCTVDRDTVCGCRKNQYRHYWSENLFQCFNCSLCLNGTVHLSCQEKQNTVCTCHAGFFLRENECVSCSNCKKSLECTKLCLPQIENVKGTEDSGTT

B1: R38G (designed binder)
chain: SMEEEVEKAAKEYEKKKKEAIEKHLEKLKAKDKEAAEGFLKELEEAAKEYAKDEAKTMSEEEAKRRAKKYKEKVLLSELSEEEQKEIKEAEEKLVRTILKYVEEAAK
B2: E103Y (designed binder)
chain: B1 chain with G38R, E103Y
B3: L40Q (designed binder)
chain: B1 chain with G38R, L40Q
B4: L40D (designed binder)
chain: B1 chain with G38R, L40D
B5: K69P (designed binder)
chain: B1 chain with G38R, K69P
B6: F39W (designed binder)
chain: B1 chain with G38R, F39W
B7: E104W (designed binder)
chain: B1 chain with G38R, E104W
B8: L76I (designed binder)
chain: B1 chain with G38R, L76I
B9: H24L (designed binder)
chain: B1 chain with H24L, G38R
B10: E34C (designed binder)
chain: B1 chain with E34C, G38R
B11: E61M (designed binder)
chain: B1 chain with G38R, E61M
B12: E86P (designed binder)
chain: B1 chain with G38R, E86P
B13: L28V (designed binder)
chain: B1 chain with L28V, G38R
B14: E61T (designed binder)
chain: B1 chain with G38R, E61T
B15: K56A (designed binder)
chain: B1 chain with G38R, K56A
B16: F39D (designed binder)
chain: B1 chain with G38R, F39D
B17: A10I (designed binder)
chain: B1 chain with A10I, G38R
B18: K64S (designed binder)
chain: B1 chain with G38R, K64S
B19: E92L (designed binder)
chain: B1 chain with G38R, E92L
B20: K48E (designed binder)
chain: B1 chain with G38R, K48E
B21: R96N (designed binder)
chain: B1 chain with G38R, R96N
B22: T97Q (designed binder)
chain: B1 chain with G38R, T97Q
B23: A63W (designed binder)
chain: B1 chain with G38R, A63W
B24: E26L (designed binder)
chain: B1 chain with E26L, G38R
B25: E37S (designed binder)
chain: B1 chain with E37S, G38R
B26: A55M (designed binder)
chain: B1 chain with G38R, A55M
B27: K88P (designed binder)
chain: B1 chain with G38R, K88P
B28: E7T (designed binder)
chain: B1 chain with E7T, G38R
B29: K23T (designed binder)
chain: B1 chain with K23T, G38R
B30: K71R (designed binder)
chain: B1 chain with G38R, K71R
B31: E7F (designed binder)
chain: B1 chain with E7F, G38R
B32: L40N (designed binder)
chain: B1 chain with G38R, L40N
B33: K27P (designed binder)
chain: B1 chain with K27P, G38R
B34: A106I (designed binder)
chain: B1 chain with G38R, A106I
B35: E54S (designed binder)
chain: B1 chain with G38R, E54S
B36: L75D (designed binder)
chain: B1 chain with G38R, L75D
B37: I87L (designed binder)
chain: B1 chain with G38R, I87L
B38: E3K (designed binder)
chain: B1 chain with E3K, G38R
B39: S59I (designed binder)
chain: B1 chain with G38R, S59I
B40: E49L (designed binder)
chain: B1 chain with G38R, E49L

Target: T1, TNFR1
Test: yeast display SC50

Binder | apparent Kd (screen) [nM]
B1 | 2.73
B2 | 1.86
B3 | 0.49
B4 | 1.4
B5 | 22.2
B6 | 1.05
B7 | 0.869
B8 | 1.16
B9 | 0.539
B10 | 1.16
B11 | 1.27
B12 | 12.5
B13 | 0.79
B14 | 0.956
B15 | 3
B16 | 7.07
B17 | 0.446
B18 | 0.718
B19 | 10.4
B20 | 0.446

Binder | apparent Kd (screen) [nM]
B21 | 3
B22 | 0.446
B23 | 1.54
B24 | 0.869
B25 | 0.49
B26 | 0.446
B27 | 7.78
B28 | 2.73
B29 | 0.446
B30 | 0.593
B31 | 20.2
B32 | 0.539
B33 | 2.73
B34 | 5.84
B35 | 6.43
B36 | 5.84
B37 | 2.25
B38 | 0.653
B39 | 2.73
B40 | 10.4
